According to article PMC4726124, “Peptides in headlock – a novel high-affinity and versatile peptide-binding nanobody for proteomics and microscopy” (Scientific Reports, 2016):

Target: T1, GFP with a C-terminal BC2 tag (BC2 tag (beta-catenin 16-27) on GFP, chimera)
T1 construct: GFP ('modified GFP that contains BC2T as a C-terminal peptide tag'; its control is called wtGFP); variant and limits are in the Supplementary methods; BC2 tag (BC2T), residues 16-27 of beta-catenin, at the C-terminus; also called GFP_(BC2T); source: E. coli, soluble protein fraction of the lysate (pull-downs); protein expression and purification are told in the Supplementary methods
T1 chain: PDRKAAVSHWQQ
Test: SPR; measurements 'using the GFP_(BC2T) construct'; who was immobilised and the conditions are not told in the text shown (Supplementary methods, Supplementary Fig. 3)
Details: both partners purified

Kd: 1.4 ± 0.06 nM
koff: 0.00064 s⁻¹
kon: 460000 M⁻¹ s⁻¹
B1: BC2 nanobody (VHH)
VHH: QVQLVESGGGLVQPGGSLTLSCTASGFTLDHYDIGWFRQAPGKEREGVSCINNSDDDTYYADSVKGRFTIFMNNAKDTVYLQMNSLKPEDTAIYYCAEARGCKRGRYEYDFWGQGTQVTVSS
notes: In the pull-downs it is covalently coupled to Sepharose beads (BC2 nanotrap); also called BC2-Nb; wt; source: purified; expression and purification are told in the Supplementary methods
